PMC10354751 (Bioengineering & Translational Medicine, 2023)

Tests used:
[1] = target: SpyCatcher-mi3 nanoparticle; test: SDS-PAGE of the covalent SpyTag-SpyCatcher conjugate + dynamic light scattering; cPfCSP and SpyCatcher-mi3 mixed and allowed to react overnight at 4°C; conjugate band at ~65 kDa; diameter 48 nm against 34 nm; details: scale: cPfCSP molecules per SpyCatcher-mi3 nanoparticle
[2] = target: T1, T1 synthetic peptide (without cysteine residues) (Plasmodium falciparum, synthetic peptide); test: ELISA; competition: 5 ng/mL mAb 2A10 pre-incubated with 0.5, 5 or 50 μg/mL of T1 or B3 peptide without cysteines, then allowed to bind to plates coated with PfCSP; signal normalised to that without peptide; details: both partners purified
T1 construct: source: synthetic peptide
T1 chain: DPNANPNVDPNANPNV

[3] = target: T2, full-length recombinant PfCSP (Plasmodium falciparum, strain of the …, UniProt Q7K740); test: as above; details: both partners purified
T2 construct: Plasmodium falciparum circumsporozoite protein; source: E. coli, recombinant, provided by Gennova (Pune, India)

[4] = target: T3, B3 synthetic peptide, (NANP)3 (without cysteine residues) (Plasmodium falciparum, synthetic peptide); test: as above; details: both partners purified
T3 construct: three NANP repeats of the major repeat region of Plasmodium falciparum circumsporozoite protein; written out from the printed formula (NANP)3; source: synthetic peptide
T3 chain: NANPNANPNANP

T2 sequence (Q7K740 19-374): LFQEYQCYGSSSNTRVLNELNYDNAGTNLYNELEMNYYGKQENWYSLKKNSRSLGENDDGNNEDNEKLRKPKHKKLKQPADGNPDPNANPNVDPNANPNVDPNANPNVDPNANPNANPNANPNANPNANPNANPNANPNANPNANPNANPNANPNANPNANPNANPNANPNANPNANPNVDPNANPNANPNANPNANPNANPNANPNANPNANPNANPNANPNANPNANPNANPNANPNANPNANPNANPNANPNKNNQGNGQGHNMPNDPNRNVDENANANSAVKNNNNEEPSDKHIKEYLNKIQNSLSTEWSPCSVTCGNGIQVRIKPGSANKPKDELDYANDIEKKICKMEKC

## chimeric PfCSP (cPfCSP) with C-terminal GPGPG spacer, SpyTag and 6x His-tag (from UniProt Q7K740 82-104; Q7K740 311-340; Q7K740 341-397)
[1]
  stoichiometry N: 3.2

B1: 2A10 antibody (antibody, V domains shown)
VH: QIQLVQSGPELKKPGETVKISCKASGYTFTNYGINWVKQAPGKGLKWMGWINTITEEPTFAEEFTGRFAFSLETSASTAYLQINNLKNEDTATYFCARGSEFGRLVYWGQGASVTVSS
VL: DIQMTQTTSSLSASLGDRVTISCSASQGISNYLNWYQQKPDGTVKLLIFYTSTLYSGVPSRFSGSGSGTDYSLTISNLEPEDIATYYCQQYSRFPYVFGGGTKLEIK
notes: heavy chain gene cloned into the TGEX-HC vector; light chain gene cloned into the TGEX-LC vector; treated as one molecule; also called mAb 2A10; monoclonal antibody 2A10; source: HEK293F, transfected, purified (MabSelect SuRe)
[2]
  binding result: binds
[3]
  binding result: binds
[4]
  binding result: binds
